Results reported in patent US20240166765A1 (ICONIC THERAPEUTICS, published 2024).
Positions count from the first letter of the chain named. Like-named read-outs stand apart in the source and are kept apart here.

T1: h1-107_r (human/rat chimera)
T1 construct: on HEK293 cells
T1 chain: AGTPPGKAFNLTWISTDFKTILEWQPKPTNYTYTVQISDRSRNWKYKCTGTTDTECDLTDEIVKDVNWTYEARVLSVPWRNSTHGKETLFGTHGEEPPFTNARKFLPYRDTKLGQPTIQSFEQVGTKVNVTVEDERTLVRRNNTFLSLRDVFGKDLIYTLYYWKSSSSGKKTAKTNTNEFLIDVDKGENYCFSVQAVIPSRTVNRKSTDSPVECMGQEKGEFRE

T2: hTF_N171H_T197K (human, UniProt P13726 33-251)
T2 construct: on HEK293 cells
T2 chain: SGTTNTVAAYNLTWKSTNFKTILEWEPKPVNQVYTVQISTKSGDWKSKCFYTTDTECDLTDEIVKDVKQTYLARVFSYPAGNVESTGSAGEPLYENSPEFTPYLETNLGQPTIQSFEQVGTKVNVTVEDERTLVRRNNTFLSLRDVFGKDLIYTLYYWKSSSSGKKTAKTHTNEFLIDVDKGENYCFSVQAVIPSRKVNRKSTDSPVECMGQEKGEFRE

T3: hTF_N171H_T197K (human, UniProt P13726 33-251)
T3 construct: the entry already holds N171H and T197K; on transfected HEK293 cells
T3 chain: T2 chain

T4: cynomolgus TF ECD-His6 (cynomolgus monkey (Macaca fascicularis))
T4 construct: made in Expi293 cells; also called TF-His; cTF
T4 chain: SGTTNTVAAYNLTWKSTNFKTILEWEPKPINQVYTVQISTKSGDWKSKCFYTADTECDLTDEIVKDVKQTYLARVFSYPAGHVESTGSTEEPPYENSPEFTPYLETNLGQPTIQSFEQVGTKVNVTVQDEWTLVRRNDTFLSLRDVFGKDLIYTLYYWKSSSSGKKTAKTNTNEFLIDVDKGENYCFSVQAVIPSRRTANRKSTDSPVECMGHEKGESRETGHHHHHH

B1: 29D (antibody, V domains shown)
VH: QVQLVESGGGVVQPGRSLRLSCAASGFTFHSRGMHWVRQAPGKGLEWVAVITYDGINKYYADSVEGRFTISRDNSKNTLYLQMNSLRAEDTAVYYCARDGVYYGVYDYWGQGTLVTVSS
VL: not shown
notes: Human anti-TF IgG1
B2: 29E (antibody, human IgG1, V domains shown)
VH: B1 VH with H30R, R32Y
VL: not shown
notes: Human IgG1
B3: 29E (antibody, V domains shown)
VH: B1 VH with H30R, R32Y
VL: not shown
notes: Human anti-TF IgG1
B4: 54E (antibody, V domains shown)
VH: QVQLVQSGAEVKKPGASVKVSCKASGYTFANYYMHWVRQAPGQGLEWMGIINPSGGITVYAQKFQGRVTMTRDTSTSTVYMELSSLRSEDTAVYYCARGGSKVAALAFDIWGQGTMVTVSS
VL: DIQMTQSPSSLSASVGDRVTITCQASQDISNSLNWYQQKPGKAPKLLIYDASNLETGVPSRFSGSRSGTDFTFTISSLQPEDIATYYCQQYNFHPLTFGGGTKVEIK
notes: Human anti-TF IgG1
B5: 1G (antibody, V domains shown)
VH: EVQLLESGGGLVQPGGSLRLSCAASGFTFSSYAMAWVRQAPGKGLEWVSAISGSGGLTYYADSVKGRFTISRDNSKNTLYLQMNSLRAEDTAVYYCAKAPYGYYMDVWGKGTTVTVSS
VL: not shown
notes: Human anti-TF IgG1
B6: 1F (antibody, human IgG1, V domains shown)
VH: B5 VH with S31D, A35G, A50T
VL: not shown
notes: Human IgG1
B7: 43D7 (antibody, human IgG1, kappa, V domains shown)
VH: QVQLQQWGAGLLKPSETLSLTCAVYGGSLSGYYWSWIRQPPGKGLEWIGEIGASGSTRYNPSLKSRVTISVDTSKNQFSLKLSSVTAADTAVYYCARDTPYYYEGGYYYYMDVWGKGTTVTVSS
VL: EIVLTQSPGTLSLSPGERATLSCRASDSVDSSYLAWYQQKPGQAPRLLIYGAFSRANGIPDRFSGSGSGTDFTLTISRLEPEDFAVYYCQQAGVVPYTFGGGTKVEIKR
notes: human IgG1
B8: 43D8 (antibody, human IgG1, kappa, V domains shown)
VH: B7 VH
VL: B7 VL with D27Q, D30S, Y33F, F53Y, N57T
notes: human IgG1; also called 43D8 mAb; test article
B9: 25A3 (antibody, human IgG1, kappa, V domains shown)
VH: QVQLVQSGAEVKKPGASVKVSCKASGYTFDVYGISWVRQAPGQGLEWMGWIAPYSGNTNYAQKLQGRVTMTTDTSTSTAYMELRSLRSDDTAVYYCARDAGTYSPFGYGMDVWGQGTTVTVSS
VL: DIQMTQSPSTLSASVGDRVTITCQASQSINNWLAWYQQKPGKAPKLLIYKAYNLESGVPSRFSGSGSGTEFTLTISSLQPDDFATYYCQLFQSLPPFTFGGGTKVEIKR
notes: human IgG1

How the values were obtained:
[1] = biological target: T5, human Tissue Factor on MDA-MB-231 cells (human, UniProt P13726 33-295); assay: flow cytometry, MDA-MB-231 cells; binding of 20 nM FVII-Fc-Alexa488 (competitor) left at 28 nM Ab
T5 construct: also called TF; hTF

[2] = biological target: T5, human Tissue Factor on MDA-MB-231 cells; assay: flow cytometry, MDA-MB-231 cells; binding of 20 nM FVII-Fc-Alexa488 (competitor) left at 83 nM Ab
[3] = biological target: T5, human Tissue Factor on MDA-MB-231 cells; assay: cell-based or functional assay
[4] = biological target: T5, human Tissue Factor on MDA-MB-231 cells; assay: cell-based or functional assay; remark: listed apart in the source
[5] = biological target: T5, human Tissue Factor on MDA-MB-231 cells; assay: flow cytometry, MDA-MB-231 cells; binding of 20 nM FVII-Fc-Alexa488 (competitor) left at 9.25 nM Ab
[6] = biological target: T5, human Tissue Factor on MDA-MB-231 cells; assay: flow cytometry, MDA-MB-231 cells; binding of 20 nM FVII-Fc-Alexa488 (competitor) left at 250 nM Ab
h1-77_r = biological target: T6, h1-77_r (human/rat chimera); assay: live cell staining, flow cytometry
T6 construct: Human TF with ECD residues 1-77 replaced by the rat segment; on HEK293 cells

h78-107_r.v2 = biological target: T7, h78-107_r.v2 (human/rat chimera); assay: live cell staining, flow cytometry
T7 construct: on HEK293 cells

h1-107_r = biological target: T1, h1-107_r; assay: live cell staining, flow cytometry
rTF (rat TF) [7] = biological target: T8, rTF (rat TF) (rat, UniProt P42533 29-252); assay: live cell staining, flow cytometry
T8 construct: Expressed on the surface of transfected HEK293 cells

hTF = biological target: T9, hTF (human, UniProt P13726 33-251); assay: live cell staining, flow cytometry
T9 construct: also called human TF; human Tissue Factor

hTF_N171H_T197K [8] = biological target: T2, hTF_N171H_T197K; assay: live cell staining, flow cytometry
r141-194_h = biological target: T10, r141-194_h (rat/human chimera, UniProt P42533 29-252); assay: live cell staining, flow cytometry
T10 construct: on HEK293 cells

rTF (rat TF) [9] = biological target: T8, rTF (rat TF); assay: live cell staining, flow cytometry; remark: listed apart in the source
Relipidated TF = Relipidated TF (UniProt P13726 33-295, limits assumed); assay: cell-based or functional assay
mouse TF ECD-His6 [10] = biological target: T11, mouse TF ECD-His6 (mouse, UniProt P20352 29-251); assay: SPR (Biacore), antibody on chip, TF-His titrated
T11 construct: made in Expi293 cells; also called TF-His; mTF

mouse TF ECD-His6 [11] = biological target: T11, mouse TF ECD-His6; assay: BLI (ForteBio Octet)
hTF_N171H_T197K [12] = biological target: T3, hTF_N171H_T197K; assay: live cell staining of transfected HEK293, flow cytometry
[13] = biological target: rTF (rat TF) on HEK293 cells (rat, UniProt P42533 29-252); assay: as above
Chain of rTF (rat TF) on HEK293 cells (P42533 29-252): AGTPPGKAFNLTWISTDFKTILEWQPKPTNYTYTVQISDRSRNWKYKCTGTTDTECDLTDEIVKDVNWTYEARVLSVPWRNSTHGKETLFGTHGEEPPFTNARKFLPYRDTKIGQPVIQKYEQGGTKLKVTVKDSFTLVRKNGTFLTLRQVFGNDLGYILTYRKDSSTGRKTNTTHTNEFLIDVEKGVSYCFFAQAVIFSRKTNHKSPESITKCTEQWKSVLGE

human TF ECD-His6 [14] = biological target: T12, human TF ECD-His6 (human, UniProt P13726 33-251); assay: SPR (Biacore), antibody on chip, TF-His titrated
T12 construct: made in Expi293 cells; the entry holds the ECD with the C-terminal TG-His6; also called TF-His; hTF

cynomolgus TF ECD-His6 [15] = biological target: T4, cynomolgus TF ECD-His6; assay: SPR (Biacore), antibody on chip, TF-His titrated
human TF ECD-His6 [16] = biological target: T12, human TF ECD-His6; assay: BLI (ForteBio Octet)
cynomolgus TF ECD-His6 [17] = biological target: T4, cynomolgus TF ECD-His6; assay: BLI (ForteBio Octet)

Row | Binder | % FVIIa [1] [%] | % FVIIa [2] [%] | % IL8, 2.56 nM Ab [3] [%] | % IL8, 6.4 nM Ab [3] [%] | % IL8, 16 nM Ab [3] [%] | % IL8, 40 nM Ab [3] [%] | % IL8, 100 nM Ab [3] [%] | % FXa, 12.5 nM Ab [4] [%] | % FXa, 25 nM Ab [4] [%] | % FXa, 50 nM Ab [4] [%] | % FXa, 100 nM Ab [4] [%] | % FVIIa [5] [%] | % FVIIa [6] [%] | Kd (mouse TF ECD-His6 [11]) [nM] | other results
1 | B1 | 4 | 3 | 27 | 6 | 2 | 2 | 1 | 85 | 77 | 75 | 75 | 6 | 3 |  | 
2 | B2 |  |  |  |  |  |  |  |  |  |  |  |  |  |  | Percent antibody binding to TF construct relative to hTF (h1-77_r): 0%; Percent antibody binding to TF construct relative to hTF (h78-107_r.v2): 0%; Percent antibody binding to TF construct relative to hTF (h1-107_r): 0%; Percent antibody binding to TF construct relative to hTF (rTF (rat TF) [7]): 0%; Percent antibody binding to TF construct relative to hTF (hTF): 100%; Percent antibody binding to TF construct relative to hTF (hTF_N171H_T197K [8]): 98%; Percent antibody binding to TF construct relative to hTF (r141-194_h): 0%; Percent antibody binding to TF construct relative to hTF (rTF (rat TF) [9]): 0%
3 | B3 | 3 | 2 | 33 | 5 | 2 | 2 | 2 | 81 | 68 | 63 | 66 | 5 | 2 |  | TGA % ETP, 10 nM Ab, 10 min pre-incubation (Relipidated TF): 73%; TGA % ETP, 50 nM Ab, 10 min pre-incubation (Relipidated TF): 68%; TGA % ETP, 100 nM Ab, 10 min pre-incubation (Relipidated TF): 64%; TGA % Peak IIa, 10 nM Ab, 10 min pre-incubation (Relipidated TF): 30%; TGA % Peak IIa, 50 nM Ab, 10 min pre-incubation (Relipidated TF): 27%; TGA % Peak IIa, 100 nM Ab, 10 min pre-incubation (Relipidated TF): 26%; TGA ETP, 10 nM Ab, 10 min pre-incubation (Relipidated TF): 1250 nM·min; TGA ETP, 50 nM Ab, 10 min pre-incubation (Relipidated TF): 1170 nM·min; TGA ETP, 100 nM Ab, 10 min pre-incubation (Relipidated TF): 1100 nM·min; TGA Lag Time, 10 nM Ab, 10 min pre-incubation (Relipidated TF): 10.4 min; TGA Lag Time, 50 nM Ab, 10 min pre-incubation (Relipidated TF): 14.2 min; TGA Lag Time, 100 nM Ab, 10 min pre-incubation (Relipidated TF): 15.1 min; TGA Peak IIa, 10 nM Ab, 10 min pre-incubation (Relipidated TF): 78 nM; TGA Peak IIa, 50 nM Ab, 10 min pre-incubation (Relipidated TF): 70 nM; TGA Peak IIa, 100 nM Ab, 10 min pre-incubation (Relipidated TF): 68 nM; TGA ttPeak, 10 nM Ab, 10 min pre-incubation (Relipidated TF): 20.2 min; TGA ttPeak, 50 nM Ab, 10 min pre-incubation (Relipidated TF): 24.3 min; TGA ttPeak, 100 nM Ab, 10 min pre-incubation (Relipidated TF): 25.3 min
4 | B4 | 3 | 3 | 48 | 8 | 3 | 2 | 2 | 53 | 44 | 41 | 42 | 11 | 2 |  | 
5 | B5 | 7 | 7 | 26 | 4 | 3 | 2 | 2 | 55 | 48 | 41 | 41 | 7 | 6 |  | 
6 | B6 |  |  |  |  |  |  |  |  |  |  |  |  |  |  | Percent antibody binding to TF construct relative to hTF (h1-77_r): 0%; Percent antibody binding to TF construct relative to hTF (h78-107_r.v2): 0%; Percent antibody binding to TF construct relative to hTF (h1-107_r): 0%; Percent antibody binding to TF construct relative to hTF (rTF (rat TF) [7]): 0%; Percent antibody binding to TF construct relative to hTF (hTF): 100%; Percent antibody binding to TF construct relative to hTF (hTF_N171H_T197K [8]): 83%; Percent antibody binding to TF construct relative to hTF (r141-194_h): 0%; Percent antibody binding to TF construct relative to hTF (rTF (rat TF) [9]): 0%
7 | B7 |  |  |  |  |  |  |  |  |  |  |  |  |  | 41.4 | Kd (mouse TF ECD-His6 [10]): 21 nM
8 | B8 |  |  |  |  |  |  |  |  |  |  |  |  |  | 6.12 | Kd (mouse TF ECD-His6 [10]): 2.4 nM
9 | B9 |  |  |  |  |  |  |  |  |  |  |  |  |  | 131 | binding result (hTF_N171H_T197K [12]): no binding; binding result [13]: no binding (tested: 15 µg/ml (100 nM)); Kd (human TF ECD-His6 [14]): 0.36 nM; Kd (cynomolgus TF ECD-His6 [15]): 0.21 nM; Kd (human TF ECD-His6 [16]): 1.67 nM; Kd (cynomolgus TF ECD-His6 [17]): 1.36 nM
